In article PMC8184657 one finds Ka and dH data, which are given here for 1 substance.

For the experiment, the target named is insulin (bovine insulin) (bovine). As to the kind of experiment: ITC. (In general: Isothermal titration calorimetry measures the heat released or taken up as one component is titrated into another.)

Consider IS1 (tetrapeptide VYYR), for which the Ka stood at 0.00346 M⁻¹ and the dH was -18.7 kcal/mol.
